From doi:10.1101/654111 (bioRxiv, 2019) come the findings set out here.

The data set deals with the molecule itself. Briefly: SEC-MALS. A general note: Size exclusion chromatography separates by hydrodynamic size, large species first.

B1: Gemin5 TPR-like domain (residues 807-1097) (domain or fragment)
chain: TPVSSGFEKSKVTINNKVILLKKEPPKEKPETLIKKRKARSLLPLSTSLDHRSKEELHQDCLVLATAKHSRELNEDVSADVEERFHLGLFTDRATLYRMIDIEGKGHLENGHPELFHQLMLWKGDLKGVLQTAAERGELTDNLVAMAPAAGYHVWLWAVEAFAKQLCFQDQYVKAASHLLSIHKVYEAVELLKSNHFYREAIAIAKARLRPEDPVLKDLYLSWGTVLERDGHYAVAAKCYLGATCAYDAAKVLAKKGDAASLRTAAELAAIVGEDELSASLALRCAQELLL
Regarding B1, the stoichiometry N (as a rule, a count of units in the complex or per binding partner) was found to be 2.
